# Test results: publication PMC7099567, “Enzymatic Synthesis of 2-Keto-3-Deoxy-6-Phosphogluconate by the 6-Phosphogluconate-Dehydratase From Caulobacter crescentus” (Frontiers in Bioengineering and Biotechnology, 2020)
# B1: 6-phosphogluconate dehydratase/Entner-Doudoroff dehydratase (EDD) from Caulobacter crescentus (enzyme, UniProt A0A0H3CB86 1-602, looked up)
# chain: MSLNPVIADVTARIVARSKDSRAAYLANMDRAIENQPGRAKLSCANWAHAFAASPGVDKLRALDPNAPNIGIVSAYNDMLSAHQPLEAYPALIKDAARDVGATAQFAGGVPAMCDGVTQGRPGMELSLFSRDVIAMATAVALTHDAFDSALYLGVCDKIVPGLVIGALTFSHLPALFVPAGPMTSGLPNSEKARIRALYAEGKVGREELLAAESASYHGPGTCTFYGTANTNQMLMELMGFHLPGSAFVHPNTPLREALVKESARRVAAVTNKGNEFIPVGRMIDEKSFVNGVVGLMATGGSTNLALHIIAMAAAAGVQLTLEDLDDISKATPLLARVYPNGSADVNHFQAAGGMAFVIRELLKAGLVHEDVQTIAGAGLSLYAKEPVLEDGMLTWRDGAHESLDPAIVRPVSDPFSKEGGLRLMAGNLGRGVMKISAVKPEHHVIEAPCAVFQEQEDFIAAFKRGELDRDVVVVVRFQGPSANGMPELHNLSPSISVLLDRGHKVALVTDGRMSGASGKTPAAIHVTPEAAKGGPLAYVQDGDVIRVNAETGELKIMVDEATLLARTPANVPASKPGFGRELFGWMRSGVGAADAGASVFA
# notes: Homodimer by size exclusion chromatography (130 kDa native, 63.2 kDa by SDS-PAGE); also called CcEDD; 6PG dehydratase; source: E. coli BL21 (DE3), pET15b, purified (Ni-TED)
# Tests used:
# [1] = target: the molecule itself; assay: SEC; HiLoad 26/60 Superdex 200 prep grade; buffer C (50 mM HEPES/KOH, 300 mM NaCl, 5 mM MnCl, pH 8); isocratic flow 2 ml min^-1; native mass compared with the subunit mass from SDS-PAGE
# purified protein = substrate: O=C(O)[C@H](O)[C@@H](O)[C@H](O)[C@H](O)COP(=O)(O)O; assay: purified protein; type: biochemical, Caulobacter vibrioides; settings: 100 mM HEPES pH 8.0, 37 C, 0.2 mM NADH, enzyme purified and stored with 5 mM MnCl2
protein,measurement,setting,value
B1,stoichiometry N,[1],2
same,Km,purified protein,0.3 mM
